This note sets out measurements from IntAct's records for PubMed 23022437.

B1: Sodium channel protein type 7 subunit alpha (Mus musculus), B1AYL1 (parent)
chain: MLTSPEPKGLVPFTTESLELIENHIAKKCNEDPEEEEGLKPSRNLEAGKRLPIPYGTLPRGTVSEPLEDVDPYYYVKRNTFMVLNRSRVIFRFNAVSIFCTLSPLNSLRRAAIKALVHPLFRLLILISVLTDSILMCMSNLPEWILAIENTLLGIYAFEILVKVIARGIWAGSFSFLGDLWNWLDFSVTLFELITRFSPLSSFLMLKTIRTFRILKIIPLNHGLQSIVMTLAQCLKKLFGAIALALFFLAVFSLLGMGLFMGNLKHKCLRWPEENENETLHNRTGSLNYSPERINFYYMEGAKYALLCGNRTDAGQCPEGYVCVKEGTNPDNGFTSFDNFGWSLLAMFRLMTQDYPELLYHQILYASGKVYMIFFVMISFWFAFYLTSLFLGILTMTYEKEKQRACEESGGLDPKCQQTVKELDEENDAAEMETTQIEMKKRSPTSINTTLDILEDTTLGHREEPETSRKKCPICWHKFIKTCFIWKCSPCWVKLNEFADRVITHPLADLFLVICIVLNICFLALEHFPMSEELRSLLHVGNLVFIGIYTIEMILKIIAMHPYGYFQISWNIFDSILVVLELTEILLADVEGLAVLITVPLIFIKLGKYGPPFKSLMRILGSSLMALKDLVLLLCIFVYFSAVFGMKLFGRSYKDCVCHIKEDCQPQRWHMSDFLHAYMTVFRILCGEWIETLWECMEVAGQAWCIPFYMMVILIGNLLILYLFVTLVSSFSYYDATSEVNKEAKNLQLAMARIKSGINSMLLKLMCTERSVPTEATDQICDPSVKENISGHTLSELSNTQTFLRYKDQSSSTEKTPVTESESQSLIASPSASETVPIASGESDIENLDNKETRSKSGNGGSKEKMKQSSSSECSTVDIAISEEEEMVYEHEKSKLHKNGYERKSSTGQISRESRNGKIWKNIRKTCCKIVENSWFECFIGLVTLLCTGTLALEDIYIDQRKTTKILLEYADMIFAYIFILEMLLKWVAYGFKAFFSNNWYKLDFMVVIVFCLSLIGKTREDLNPLTSIKFLRALRVLSQFERMKVVLRALIKTTLPTVSVFLVCLMIWLLFSVIGVQLFAGKFYECIDPTKGERFPVFEVMNKSQCEKLLFNESMPWENAKLNFDNVGNGFLSLLQVATFNGWISIMNSAIDSVGVNMQPSFEYNLYMYSYFIIFVIFGLFLPLCMLIGVIIRNFNKQKIKQGGSNIFITVKQKKQYRALKKLLYADVQKPTPRPRNKFQGFLFDLVTHRVFNVIIILLICFQATTIMIQKDEQSPQMETAIFWMNSIFVMLFTLECILKLTAFRCHYFTSAWNVHDFMVVIFSITGLLLPLTIGQYFVPPSLVQLILLSRVIHILRPGKGPKVFHDLMLPLILALPALLNISLLIFLVMFIYAIFGMYNFAYVKKEAGINDVSNFETFGSSMLCLFQVTTFSGWDGMLDAIFNSQWSDCDPDKINPGTQVKGDCGSPSVGISYFVSYILISWLIIVNMYIVLIMEFLSIPSQKKSRTLSEDDFRRFFRVWNRFDPDRTQYIDSSKLSDFAAALDPPLFMAKPNKGQLVAMDLPMAAGDRIHCLDILLAFTKRVMGKDERVEKILSEIESGFMLANPFKITYEPITTTLKRKQEAVSATIIQRAYKSYRLRQNDKNVSDTPAIDDRRDDLTSKGAHSGKIEEKASIQTQI

One assay covers variants of B1. The settings on record: with dlg1_mouse Dlg1, Q811D0.
Sequence of dlg1_mouse Dlg1, Q811D0 (Q811D0 whole entry): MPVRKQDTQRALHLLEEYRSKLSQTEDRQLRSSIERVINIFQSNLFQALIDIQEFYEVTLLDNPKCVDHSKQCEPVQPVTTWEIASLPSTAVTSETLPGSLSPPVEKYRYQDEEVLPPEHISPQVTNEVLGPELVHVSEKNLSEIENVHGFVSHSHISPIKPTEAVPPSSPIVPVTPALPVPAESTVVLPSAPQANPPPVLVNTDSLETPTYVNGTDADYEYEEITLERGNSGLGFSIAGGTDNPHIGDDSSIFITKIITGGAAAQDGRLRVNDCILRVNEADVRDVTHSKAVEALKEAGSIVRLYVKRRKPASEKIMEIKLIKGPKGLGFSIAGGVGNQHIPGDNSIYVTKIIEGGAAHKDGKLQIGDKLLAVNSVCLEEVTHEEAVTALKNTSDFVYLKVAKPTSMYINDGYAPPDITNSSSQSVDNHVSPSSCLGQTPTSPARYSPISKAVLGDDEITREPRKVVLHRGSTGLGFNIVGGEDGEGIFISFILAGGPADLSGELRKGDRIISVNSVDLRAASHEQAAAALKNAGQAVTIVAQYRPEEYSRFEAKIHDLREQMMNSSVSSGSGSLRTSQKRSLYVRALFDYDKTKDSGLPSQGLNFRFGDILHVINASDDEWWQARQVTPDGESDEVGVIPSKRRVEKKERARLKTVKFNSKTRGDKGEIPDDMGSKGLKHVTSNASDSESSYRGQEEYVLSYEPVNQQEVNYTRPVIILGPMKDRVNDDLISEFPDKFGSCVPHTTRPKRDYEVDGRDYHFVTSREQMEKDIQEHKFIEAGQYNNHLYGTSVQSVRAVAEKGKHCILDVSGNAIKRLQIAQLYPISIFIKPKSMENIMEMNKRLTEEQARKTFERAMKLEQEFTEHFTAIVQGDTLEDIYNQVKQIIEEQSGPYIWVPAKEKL
On to T1679A, for which the “effect of a mutation on the interaction” value was “disrupting interaction”.

In the next assay the parent is B1. The settings on record: with dlg1_rat Dlg1, Q62696.
Sequence of dlg1_rat Dlg1, Q62696 (Q62696 whole entry): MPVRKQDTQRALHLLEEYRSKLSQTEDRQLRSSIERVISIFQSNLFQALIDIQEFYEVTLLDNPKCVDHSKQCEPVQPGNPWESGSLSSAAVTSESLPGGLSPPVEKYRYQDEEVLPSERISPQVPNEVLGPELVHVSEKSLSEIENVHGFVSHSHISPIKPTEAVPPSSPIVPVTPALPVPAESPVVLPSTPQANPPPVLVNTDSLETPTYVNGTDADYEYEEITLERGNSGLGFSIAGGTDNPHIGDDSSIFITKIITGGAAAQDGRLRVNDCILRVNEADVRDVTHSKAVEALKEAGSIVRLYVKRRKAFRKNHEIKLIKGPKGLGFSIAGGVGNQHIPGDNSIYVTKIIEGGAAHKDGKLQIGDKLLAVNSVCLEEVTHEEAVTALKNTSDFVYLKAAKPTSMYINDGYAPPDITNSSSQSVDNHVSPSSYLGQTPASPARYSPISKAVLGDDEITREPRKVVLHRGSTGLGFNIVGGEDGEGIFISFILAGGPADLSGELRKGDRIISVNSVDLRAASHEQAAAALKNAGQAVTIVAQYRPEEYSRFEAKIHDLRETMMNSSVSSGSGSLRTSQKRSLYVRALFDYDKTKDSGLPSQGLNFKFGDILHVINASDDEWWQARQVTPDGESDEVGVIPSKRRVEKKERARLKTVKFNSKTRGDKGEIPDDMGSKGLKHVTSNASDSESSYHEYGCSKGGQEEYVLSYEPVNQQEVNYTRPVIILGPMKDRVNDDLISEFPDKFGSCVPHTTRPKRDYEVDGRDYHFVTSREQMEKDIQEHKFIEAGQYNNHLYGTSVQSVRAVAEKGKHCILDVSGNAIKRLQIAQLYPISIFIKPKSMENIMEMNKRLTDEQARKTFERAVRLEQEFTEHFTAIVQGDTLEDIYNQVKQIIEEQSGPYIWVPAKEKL
For the variant T1679A, the “effect of a mutation on the interaction” value was “disrupting interaction”.
